Measurements: patent publication US8722052B2, “Vaccinia virus protein A46 peptide and use thereof” (priority 2008, dated 2014)

Tests used:
[1] = tested on: RAW264.7 cells; assay: MTT cell viability assay, RAW264.7; format: cell-based, murine
Procedure: FIGS. 5A and B are bar charts showing the dose-dependent inhibitory effect of A464R on LPS-induced TNFα in murine RAW264.7 cells. A464 (SEQ ID NO. 20) was added to the cells at a concentration of 5, 20 or 50 μM 1 hour before stimulating with 100 ng/ml LPS. Supernatant was collected 24 hours after stimulation and assayed for TNFα by ELISA (A) and cells were assayed for viability by the MTT assay (B.). No peptides were added to the control wells (black bars). Data is representative of at least three experiments each performed in triplicate and is expressed as mean±s.d;
FIGS. 10A and B are bar charts showing the effect of A464 on poly(I:C)-induced TNFα in murine RAW264.7 cells. Cells were seeded in 96 well plates (1.5×10^5 cells/nil) 24 hours before treatment. A464 (SEQ ID NO. 20) was added to the cells at a concentration of 5, 20 or 50 μM 1 hour before stimulating with 25 μg/ml Poly(I:C). […] Data is representative of at least three experiments each performed in triplicate and is expressed as mean±s.d;
Cell viability was measured by assessing mitochondrial function using an MTT (3-(4,5-Dimethylthiazol-2-yl)-2,5-diphenyltetrazolium bromide) assay. […] MTT was then removed and 200 μl per well of dimethyl sulphoxide (DMSO) was added and cells incubated for 20 min at 37° C. in the dark, prior to absorbance being read at 595 nm on a spectrophotometer.

[2] = target: T1, TLR7 (Mus musculus, UniProt P58681); assay: murine TLR7 response; format: cell-based
T1 sequence (P58681 27-1050): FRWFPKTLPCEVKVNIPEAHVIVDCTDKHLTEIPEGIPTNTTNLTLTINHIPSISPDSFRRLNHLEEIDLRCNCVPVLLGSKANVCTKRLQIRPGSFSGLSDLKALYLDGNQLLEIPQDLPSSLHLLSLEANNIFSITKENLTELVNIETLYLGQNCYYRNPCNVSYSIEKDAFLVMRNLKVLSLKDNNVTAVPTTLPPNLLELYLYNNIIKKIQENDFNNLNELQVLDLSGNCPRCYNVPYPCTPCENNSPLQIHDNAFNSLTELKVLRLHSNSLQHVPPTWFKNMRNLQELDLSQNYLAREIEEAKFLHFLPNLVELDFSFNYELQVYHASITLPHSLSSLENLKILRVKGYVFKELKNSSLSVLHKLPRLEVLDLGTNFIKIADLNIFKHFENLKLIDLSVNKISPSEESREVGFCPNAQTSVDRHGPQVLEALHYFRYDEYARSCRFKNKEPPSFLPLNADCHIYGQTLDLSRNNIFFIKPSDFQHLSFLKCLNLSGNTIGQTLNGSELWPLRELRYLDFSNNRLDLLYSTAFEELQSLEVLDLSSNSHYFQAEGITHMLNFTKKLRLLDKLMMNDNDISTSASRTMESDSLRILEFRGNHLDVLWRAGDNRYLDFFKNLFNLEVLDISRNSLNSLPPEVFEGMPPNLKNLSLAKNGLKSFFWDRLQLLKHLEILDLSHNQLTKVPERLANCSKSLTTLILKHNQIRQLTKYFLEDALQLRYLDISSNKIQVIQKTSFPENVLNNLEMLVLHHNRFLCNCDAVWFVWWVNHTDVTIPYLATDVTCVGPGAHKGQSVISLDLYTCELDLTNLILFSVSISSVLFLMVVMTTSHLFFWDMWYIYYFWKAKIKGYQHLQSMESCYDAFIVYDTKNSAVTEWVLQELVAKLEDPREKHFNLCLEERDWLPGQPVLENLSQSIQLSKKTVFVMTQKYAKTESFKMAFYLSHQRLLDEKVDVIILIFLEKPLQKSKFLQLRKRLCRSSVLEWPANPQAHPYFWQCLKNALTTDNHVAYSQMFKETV

Sequence: KYSFKLILAEYRRRRRRRRR [Peptide A464]
- toxicity (MTT) in the presence of LPS ([1]; 100 ng/ml LPS, 24 h): no toxicity at the concentrations of 5 and 20 μM
- toxicity (MTT) in the absence of LPS ([1]; no LPS): some cytotoxicity at 20 μM
- inhibition of murine TLR7 [2]: insensitive
